Results reported in US7582299B2, “Cripto-specific antibodies” (Biogen Idec MA Inc., priority 2001, dated 2009).

Experiments:
CR-Fc [1] = target: T1, CR-Fc (Homo sapiens, UniProt P13385); experiment: Biacore, CR-Fc immobilized on chip; format: binding; settings: for binding to CR-Fc immobilized on a Biacore chip: FIG. 10
T1 sequence (P13385 31-150): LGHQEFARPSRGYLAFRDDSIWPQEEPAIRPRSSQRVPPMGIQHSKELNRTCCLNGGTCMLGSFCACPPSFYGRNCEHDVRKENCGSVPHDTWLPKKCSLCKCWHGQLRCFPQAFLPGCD
From the text: We also analyzed the Cripto-Activin B interaction using Biacore. […] We also observed that Activin A binding to CR-Fc was negligible.

T-47D-CR cells = experiment: Proliferation of T-47D-CR cells with Activin, with or without anti-Cripto mab; format: cell-based, human; settings: low serum; FIG. 6
Description: (§1) T47D cells, maintained in RPMI/10% FCS/10 μg/ml insulin, at passage #2 from the ATCC were transfected with an expression plasmid for the Ecotropic Receptor (EcoR; B. Elenbaas) and selected in media containing 100 μg/ml hygromycin. Colonies of T-47D-EcoR that permitted infection of pBABE-GFP murine leukemia virus (MLV) were grown out, infected with pBABE-hCr-PURO-MLV and selected in puromycin media. This oligoclonal line (T-47D-hCr) was analyzed by FACS for hCr (human Cripto) expression with specific anti-Cripto antibodies. Approximately 4000 cells/well of T-47D-EcoR or T-47D-hCr were plated in a 96 well plate in media containing 2% serum with/without 25 ng/ml Activin B (R&D) or […] plus 0.1-50 μg/ml A8G3.5. Media with factors was replaced daily for 7-8 days. The plate was harvested by adding 20 μl/well CellTiter AQueous One solution (Promega), incubating 2 hours 37° C., and reading at 490 nm.
(§2) We grew T-47D and T-47D-EcoR cells in low serum conditions, with or without Activin A or B and assayed for proliferating cells using an MTT colorimetric assay.
We then tested whether antibodies of the invention can inhibit the Cripto-Activin B interaction. We treated T-47D-CR cells with Activin B in the presence of various antibodies of the invention. We observed that the growth suppressive activity of Activin B was restored in the presence of 10 or 20 μg/ml mab A8G3.5 (FIG. 7).

T-47D cells = experiment: Proliferation of T-47D cells with Activin A or B (MTT); format: cell-based, human; settings: low serum; compared to untreated cells; FIG. 6
Description: as §1, §2

CR-Fc [2] = target: T1, CR-Fc; experiment: ELISA of CR-Fc on ligand-coated plates; format: binding; settings: for inhibition of CR-Fc binding to Activin B coated plate: CR-Fc pre-incubated with ligand in solution, FIG. 9; for binding of CR-Fc to ligand-coated wells: ELISA plates coated with purified ligand, FIG. 8
Description: In still other experiments, we coated 96 well plates by adding to each well 100 μl of 3-5 μg/ml Activin B or another ligand in 50 mM carbonate (pH 9.5). We incubated the plates for 1 hr. at room temperature and blocked overnight with TBS/1% BSA overnight at 4° C. We incubated the plate with CR-Fc or ALK4-Fc in blocking buffer at room temperature, washed in TBST and probed with anti-human-AP (Jackson). We washed the plate in TBST, once in 10× substrate buffer (200 mM Tris-HCl, 10 mM MgCl2, pH 9.8) and added CSPD and Sapphire (Applied Biosystems).
We discovered that Cripto binds directly to Activin B. We coated ELISA plates with purified Activin B, Activin A, TGFβ1, GDNF or BMP2 and incubated with CR-Fc. We then added anti-Fc antibody conjugated to alkaline phosphatase and monitored binding by adding an alkaline phosphatase substrate and developing.

on rate of binding to Cripto (CR-Fc [1]; Biacore)	inhibition of CR-Fc binding to Activin B coated plate (CR-Fc [2])	binding of CR-Fc to ligand-coated wells (CR-Fc [2])	Substance	binding to CR-Fc immobilized on a Biacore chip (CR-Fc [1])	response of T-47D-CR cell proliferation to Activin (T-47D-CR cells)	inhibition of proliferation of T-47D cells (T-47D cells)
fast on rate	only Activin B inhibits binding	bound to wells containing Activin B	Activin B: purified ligand protein (R&D) that binds Cripto and inhibits tumor cell proliferation	directly binds CR-Fc immobilized on a Biacore chip with a high intensity	not responsive to Activin B	approximately 40%
–	only Activin B inhibits binding	not to Activin A	Activin A: purified ligand protein tested on T-47D cells and for binding to CR-Fc	negligible	inhibited by Activin A	approximately 40%
